This note sets out measurements from article PMC8363759 (Cell reports, 2021).

Numbering of substitutions follows the chain as printed.

The target of one assay is T1, GST-h5MP1 (human, UniProt Q9Y6E2 1-419).
T1 sequence (looked up): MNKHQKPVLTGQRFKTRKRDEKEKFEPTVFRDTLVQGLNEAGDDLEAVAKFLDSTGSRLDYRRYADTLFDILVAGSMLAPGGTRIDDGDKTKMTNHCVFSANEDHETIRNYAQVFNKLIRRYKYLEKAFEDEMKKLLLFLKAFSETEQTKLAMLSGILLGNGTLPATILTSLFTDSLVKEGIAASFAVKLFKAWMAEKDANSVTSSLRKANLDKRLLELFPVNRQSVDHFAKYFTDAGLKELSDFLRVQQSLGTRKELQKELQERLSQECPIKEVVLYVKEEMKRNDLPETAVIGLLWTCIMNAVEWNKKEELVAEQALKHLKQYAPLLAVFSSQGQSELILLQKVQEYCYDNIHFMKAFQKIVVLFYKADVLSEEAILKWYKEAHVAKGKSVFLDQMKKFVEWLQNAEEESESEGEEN
The assay is described as follows: pull-down.

In another assay the target is T2, h5MP1 (WT) (human, UniProt Q9Y6E2 1-419).
T2 sequence (looked up): T1 sequence (looked up)
Briefly: ITC.

The next assay addresses T3, h5MP1-BN1 (human, UniProt Q9Y6E2 1-419, K380Q | K383Q | H386Q | K389Q | K391Q).
T3 sequence (looked up): T1 sequence (looked up) with K380Q, K383Q, H386Q, K389Q, K391Q
Briefly: ITC.

B1: GB-heIF3c_(20-102) (domain or fragment, human, UniProt Q99613 20-102, looked up)
chain: EELVTKPVGGNYGKQPLLLSEDEEDTKRVVRSAKDKRFEELTNLIRTIRNAMKIRDVTKCLEEFELLGKAYGKAKSIVDKEGV
B1: in the assay with GST-h5MP1, the binding result was “binds”.

B2: heIF2β_(53-136) (domain or fragment, human, UniProt P20042 53-136, looked up)
chain: DLEADEEDTRKKDASDDLDDLNFFNQKKKKKKTKKIFDIDEAEEGVKDLKIESDVQEPTEPEDDLDIMLGNKKKKKKNVKFPDE
Regarding B2, the binding result in the assay with h5MP1 (WT) and in the assay with h5MP1-BN1 was “binds” in each case.
